Source: the supplement of paper PMC11246515
± gives the standard deviation of the averaged measurements.

Assay: total protein half-life in vivo (active degradation + dilution); higher = more stable protein
[1] = E. coli NCM3722 delta-clpP delta-lon delta-hslV, growth: N-lim chemostat, doubling time 6 h
[2] = E. coli NCM3722 delta-clpP, growth: N-lim chemostat, doubling time 6 h
[3] = wild type E. coli NCM3722, growth: C-lim chemostat, doubling time 6 h
[4] = wild type E. coli NCM3722, growth: C-lim chemostat, doubling time 12 h
[5] = wild type E. coli NCM3722, growth: N-lim chemostat, doubling time 12 h
[6] = E. coli NCM3722 delta-hslV, growth: N-lim chemostat, doubling time 6 h
[7] = E. coli NCM3722 delta-lon, growth: N-lim chemostat, doubling time 6 h
[8] = E. coli NCM3722 delta-smpB, growth: N-lim chemostat, doubling time 6 h
[9] = wild type E. coli NCM3722, growth: N-lim chemostat, doubling time 6 h
[10] = wild type E. coli NCM3722, growth: P-lim chemostat, doubling time 12 h
[11] = wild type E. coli NCM3722, growth: C-lim chemostat, doubling time 3 h
[12] = wild type E. coli NCM3722, growth: P-lim chemostat, doubling time 6 h

With “MESLMPWDARDTMSLRTEFVLFASQDGANIRSLCRRFGISPATGYKWLQRWAQEGAAGLQDRPRIPHHSPNRSSDDITALLRMAHDRHERWGARKIKRWLEDQGHTMPAFSTVHNLMARHGLLPGASPGIPATGRFEHDAPNRLWQMDFKGHFPFGGGRCHPLTLLDDHSRFSLCLAHCTDERRETVQQQLVSVFERYGLPDRMTMDNGSPWGDTTGTWTALELWLMRLGIRVGHSRPYHPQTQGKLERFHRSLKAEVLQGKWFADSGELQRAFDHWRTVYNLERPHEALDMAVPGSRYQPSARQYSGNTTPPEYDEGVMVRKVDISGKLSVKGVSLSAGKAFRGERVGLKEMQEDGSYEVWWYSTKVGVIDLKKKSITMGKGC” the “total protein half-life in vivo” value [1] was 3.5 ± 0.88 h, the “total protein half-life in vivo” value [2] was 3.06 h and the “total protein half-life in vivo” value [3] was 2.18 h. For the same sequence, the “total protein half-life in vivo” value [4] was 5.67 h and the “total protein half-life in vivo” value [5] was 4.45 h.
For “MKKSITTLDLNLLLCLQLLMQERSVTKAAKRINVTPSAVSKSLAKLRAWFDDPLFVNSPLGLSPTPLMVSMEQNLAEWMQMSNLLLDKPHHQTPRGLKFELAAESPLMMIMLNALSKQIYQRYPQATIKLRNWDYDSLDAITRGEVDIGFSGRESHPRSRELLSSLPLAIDYEVLFSDVPCVWLRKDHPALHQTWNLDTFLRYPHISICWEQSDTWALDNVLQELGRERTIAMSLPEFEQSLFMAAQPDNLLLATAPRYCQYYNQLHQLPLVALPLPFDESQQKKLEVPFTLLWHKRNSHNPKIVWLRETIKNLYASMA”, the “total protein half-life in vivo” value [1] was 5.87 ± 0.7 h, the “total protein half-life in vivo” value [2] was 5.16 ± 1 h and the “total protein half-life in vivo” value [6] was 5.91 ± 0.94 h. The “total protein half-life in vivo” value [7] was 6.37 ± 0.5 h, the “total protein half-life in vivo” value [8] was 4.519 ± 0.029 h and the “total protein half-life in vivo” value [9] was 4.74 h. The “total protein half-life in vivo” value [5] was 12.2 h and the “total protein half-life in vivo” value [10] was 11.2 ± 0.6 h.
With “MSRSLLTNETSELDLLDQRPFDQTDFDILKSYEAVVDGLAMLIGSHCEIVLHSLQDLKCSAIRIANGEHTGRKIGSPITDLALRMLHDMTGADSSVSKCYFTRAKSGVLMKSLTIAIRNREQRVIGLLCINMNLDVPFSQIMSTFVPPETPDVGSSVNFASSVEDLVTQTLEFTIEEVNADRNVSNNAKNRQIVLNLYEKGIFDIKDAINQVADRLNISKHTVYLYIRQFKSGDFQGQDK” the “total protein half-life in vivo” value [1] was 6.19 ± 0.97 h, the “total protein half-life in vivo” value [2] was 4.65 ± 0.54 h and the “total protein half-life in vivo” value [6] was 3.52 ± 0.076 h. For the same sequence, the “total protein half-life in vivo” value [7] was 3.21 ± 0.28 h, the “total protein half-life in vivo” value [8] was 3.38 ± 0.41 h and the “total protein half-life in vivo” value [11] was 2.482 ± 0.004 h. The “total protein half-life in vivo” value [3] was 4.69 ± 1.3 h, the “total protein half-life in vivo” value [4] was 6.93 ± 0.81 h and the “total protein half-life in vivo” value [9] was 3.36 ± 0.46 h. For the same sequence, the “total protein half-life in vivo” value [5] was 4.95 ± 1.1 h, the “total protein half-life in vivo” value [12] was 3.94 ± 0.15 h and the “total protein half-life in vivo” value [10] was 6.94 ± 0.43 h.
In the case of “MLKKCLPLLLLCTAPVFAKPVLTVYTYDSFAADWGPGPVVKKAFEADCNCELKLVALEDGVSLLNRLRMEGKNSKADVVLGLDNNLLDAASKTGLFAKSGVAADAVNVPGGWNNDTFVPFDYGYFAFVYDKNKLKNPPQSLKELVESDQNWRVIYQDPRTSTPGLGLLLWMQKVYGDDAPQAWQKLAKKTVTVTKGWSEAYGLFLKGESDLVLSYTTSPAYHILEEKKDNYAAANFSEGHYLQVEVAARTAASKQPELAQKFLQFMVSPAFQNAIPTGNWMYPVANVTLPAGFEKLTKPATTLEFTPAEVAAQRQAWISEWQRAVSR”, the “total protein half-life in vivo” value [1] is reported as 4.4 ± 0.16 h, the “total protein half-life in vivo” value [2] is reported as 5.26 ± 0.44 h and the “total protein half-life in vivo” value [6] is reported as 6.48 ± 0.38 h. The “total protein half-life in vivo” value [7] was 5.82 ± 0.072 h, the “total protein half-life in vivo” value [8] was 6.33 ± 0.42 h and the “total protein half-life in vivo” value [11] was 3.19 ± 0.21 h. The “total protein half-life in vivo” value [3] was 6.11 ± 0.24 h, the “total protein half-life in vivo” value [4] was 11 ± 0.89 h and the “total protein half-life in vivo” value [9] was 6.3 ± 0.13 h. For the same sequence, the “total protein half-life in vivo” value [5] was 14 ± 2.2 h, the “total protein half-life in vivo” value [12] was 5.65 ± 0.23 h and the “total protein half-life in vivo” value [10] was 12.9 ± 0.7 h.
With “MKRSLLFSAVLCAASLTSVHAAQPITEPEFASDIVDRYADHIFYGSGATGMALVVIDGNQRVFRSYGETRPGNNVRPQLDSVVRIASLTKLMTSEMLVKLLDQGTVKLNDPLSKYAPPGARVPTYNGTPITLVNLATHTSALPREQPGGAAHRPVFVWPTREQRWKYLSTAKLKAAPGSQAAYSNLAFDLLADALANASGKPYTQLFEEQITRPLGMKDTTYTPSPDQCRRLMVAERGASPCNNTLAAIGSGGVYSTPGDMMRWMQQYLSSDFYQRSNQADRMQTLIYQRAQFTKVIGMDVPGKADALGLGWVYMAPKEGRPGIIQKTGGGGGFITYMAMIPQKNIGAFVVVTRSPLTRFKNMSDGINDLVTELSGNKPLVIPAS [P0AD70]” the “total protein half-life in vivo” value [1] was 3.75 ± 0.98 h, the “total protein half-life in vivo” value [2] was 2.49 ± 0.33 h and the “total protein half-life in vivo” value [6] was 3.37 ± 0.26 h. The “total protein half-life in vivo” value [7] was 3.68 ± 0.084 h, the “total protein half-life in vivo” value [8] was 3.17 ± 0.11 h and the “total protein half-life in vivo” value [11] was 1.96 ± 0.34 h. The “total protein half-life in vivo” value [3] was 3.73 ± 0.71 h, the “total protein half-life in vivo” value [4] was 5.69 ± 1.3 h and the “total protein half-life in vivo” value [9] was 3.96 ± 1 h. For the same sequence, the “total protein half-life in vivo” value [5] was 5.33 ± 0.35 h, the “total protein half-life in vivo” value [12] was 3.62 ± 0.42 h and the “total protein half-life in vivo” value [10] was 6.14 ± 1.1 h.
